Substitutions are numbered along the chain they refer to.

The record followed here is patent publication US20220144961A1 (XYENCE THERAPEUTICS, published 2022).

First the molecules themselves.
T1: mouse CD27 (mouse, UniProt P41272 24-182, limits assumed)
T1 construct: The construct is not described; also called murine CD27
T1 sequence (looked up): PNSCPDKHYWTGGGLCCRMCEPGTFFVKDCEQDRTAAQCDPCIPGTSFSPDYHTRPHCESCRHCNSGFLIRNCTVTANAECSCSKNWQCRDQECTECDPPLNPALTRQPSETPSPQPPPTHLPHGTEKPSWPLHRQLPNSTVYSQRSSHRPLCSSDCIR

B1: TP25 (antibody, V domains shown)
VH: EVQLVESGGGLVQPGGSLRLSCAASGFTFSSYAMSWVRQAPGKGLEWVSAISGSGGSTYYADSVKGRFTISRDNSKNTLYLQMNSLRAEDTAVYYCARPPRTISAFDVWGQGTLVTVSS
VL: QSVVTQPPSVSGAPGQRVTISCTGSSSNIGAGYDVHWYQQLPGTAPKLLIYGNSNRPSGVPDRFSGSKSGTSASLAITGLQAEDEADYYCQSYDSSLSGYVFGTGTKVTVL
B2: TP6 (antibody, V domains shown)
VH: QVQLVESGGGVVQPGRSLRLSCAASGFTFSSYAMHWVRQAPGKGLEWVAVISYDGSNKYYADSVKGRFTISRDNSKNTLYLQMNSLRAEDTAVYYCARGYQGGYSNFDLWGQGTLVTVSS
VL: DIQMTQSPSTLSASVGDRVTITCRASQSISSWLAWYQQKPGKAPKLLIYDASSLESGVPSRFSGSGSGTDFTLTISSLQPEDFATYYCQQSYSTPYTFGQGTKLEIK
notes: also called TP06
B3: TP21 (antibody, V domains shown)
VH: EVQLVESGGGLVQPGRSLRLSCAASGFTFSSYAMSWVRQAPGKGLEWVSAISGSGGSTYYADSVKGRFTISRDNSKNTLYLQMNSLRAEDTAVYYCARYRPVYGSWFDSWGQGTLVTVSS
VL: B1 VL
notes: Clone of the screen
B4: TP28 (antibody, V domains shown)
VH: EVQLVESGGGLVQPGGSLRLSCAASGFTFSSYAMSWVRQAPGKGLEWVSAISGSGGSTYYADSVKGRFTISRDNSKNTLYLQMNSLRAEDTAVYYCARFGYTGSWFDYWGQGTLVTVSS
VL: B1 VL with N53K
notes: Clone of the screen
B5: TP22 (antibody, V domains shown)
VH: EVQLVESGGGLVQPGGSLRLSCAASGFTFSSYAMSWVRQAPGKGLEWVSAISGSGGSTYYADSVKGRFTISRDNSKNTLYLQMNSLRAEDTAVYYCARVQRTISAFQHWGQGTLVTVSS
VL: B1 VL
notes: Clone of the screen
B6: TP17 (antibody, V domains shown)
VH: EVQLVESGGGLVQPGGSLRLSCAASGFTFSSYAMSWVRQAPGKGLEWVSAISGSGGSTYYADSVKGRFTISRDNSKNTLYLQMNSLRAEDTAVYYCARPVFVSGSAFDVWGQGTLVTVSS
VL: B1 VL
notes: Clone of the screen
B7: TP9 (antibody, V domains shown)
VH: B2 VH with G99A, Y100V, Q101P, G102Y, G103V, S105Y, N106G, F107M, L109V
VL: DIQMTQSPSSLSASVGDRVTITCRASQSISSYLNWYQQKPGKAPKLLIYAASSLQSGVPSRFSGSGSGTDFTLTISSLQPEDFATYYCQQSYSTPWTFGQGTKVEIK
notes: Clone of the screen; also called TP09
B8: TP5 (antibody, V domains shown)
VH: QVQLVESGGGVVQPGRSLRLSCAASGFTFSSYAMHWVRQAPGKGLEWVAVISYDGSNKYYADSVKGRFTISRDNSKNTLYLQMNSLRAEDTAVYYCARVFYGYAPFDVWGQGTLVTVSS
VL: B2 VL with D70E, E81D
notes: Clone of the screen; also called TP05
B9: TP24 (antibody, V domains shown)
VH: B8 VH with V99P, F100V, Y101R, G102T, Y103I, A104S, P105A
VL: QSVVTQPPSVSGAPGQRVTISCTGSSSNIGAGYDVHWYQQLPGTAPKLLIYGNSNRPSGVPDRFSGSKSGTSASLAITGLQAEDEADYYCGTWDSSLSAGYVFGTGTKVTVL
notes: Clone of the screen
B10: TP15 (antibody, V domains shown)
VH: QVQLVQSGAEVKKPGASVKVSCKASGYTFTSYGISWVRQAPGQGLEWMGWISAYNGNTNYAQKLQGRVTMTTDESTSTAYMELSSLRSEDTAVYYCARGGAGHYDYFDYWGQGTLVTVSS
VL: QSVLTQPPSVSAAPGQKVTISCSGSSSNIGNNYVSWYQQLPGTAPKLLIYDNNKRPSGIPDRFSGSNSGNTATLTISGTQAMDEADYYCQAWDSSTAWVFGGGTKLTVL
notes: Clone of the screen
B11: TP14 (antibody, V domains shown)
VH: QVQLVQSGAEVKKPGASVKVSCKASGYTFTSYYMHWVRQAPGQGLEWMGIINPSGGSTSYAQKFQGRVTMTRDTSTSTVYMELSSLRSEDTAVYYCARYDHAGGTPFDLWGQGTLVTVSS
VL: QSVLTQPPSVSAAPGQKVTISCSGSSSNIGNNYVSWYQQLPGTAPKLLIYGNSNRPSGVPDRFSGSKSGTSASLAITGLQAEDEADYYCQSYDSSLSGYVFGTGTKVTVL
notes: Clone of the screen
B12: TP1 (antibody, V domains shown)
VH: QVQLVESGGGVVQPGRSLRLSCAASGFTFSSYAMHWVRQAPGKGLEWVAVISYDGSNKYYADSVKGRFTISRDNSKNTLYLQMNSLRAEDTAVYYCARAGSSGYAYYGMDVWGQGTLVTVSS
VL: not shown
notes: Clone of the screen; also called TP01
B13: TP23 (antibody, V domains shown)
VH: B10 VH with E74T, S84R, E89D
VL: B1 VL
B14: TP31 (antibody, V domains shown)
VH: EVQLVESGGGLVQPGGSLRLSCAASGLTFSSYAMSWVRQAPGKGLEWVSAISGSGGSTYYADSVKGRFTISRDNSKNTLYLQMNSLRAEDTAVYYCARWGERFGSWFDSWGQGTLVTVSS
VL: B1 VL
B15: TP29 (antibody, V domains shown)
VH: EVQLVESGGGVVQPGRSLRLSCAASGFTFSNAWMSWVRQAPGKGLEWVSAISGSGGSTYYADSVKGRFTISRDNSKNTLYLQMNSLRAEDTAVYYCARRALSLSYFDYWGQGTLVTVSS
VL: B1 VL
B16: TP11 (antibody, V domains shown)
VH: QVQLVESGGGVVQPGRSLRLSCAASGFTFSSYAMHWVRQAPGKGLEWVAVISYDGSNKYYADSVKGRFTISRDNSKNTLYLQMNSLRAEDTAVYYCARGVSGSYARGFDVWGQGTLVTVSS
VL: B2 VL with D70E, Y96W, L104V
B17: TP10 (antibody, V domains shown)
VH: QVQLVESGGGVVQPGRSLRLSCAASGFTFSSYAMHWVRQAPGKGLEWVAVISYDGSNKYYADSVKGRFTISRDNSKNTLYLQMNSLRAEDTAVYYCARSGRATSYSYYGMDVWGQGTLVTVSS
VL: not shown

One test deals with T2, human CD27 (human, UniProt P26842 21-192, limits assumed).
T2 construct: The construct (soluble form, tags) is not described; also called TNFRSF7
T2 sequence (P26842 21-192 limits assumed): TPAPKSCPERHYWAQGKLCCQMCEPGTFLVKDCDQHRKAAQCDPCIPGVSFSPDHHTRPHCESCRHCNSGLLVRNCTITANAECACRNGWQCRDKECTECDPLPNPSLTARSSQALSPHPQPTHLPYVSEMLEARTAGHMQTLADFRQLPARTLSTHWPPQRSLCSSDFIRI
Nature of the test: mAb titration on human CD27, OD readout.
Turning to B1, the half-maximal effective concentration (EC50 (read off the curve)) (commonly the concentration that produces a half-maximal response) was roughly 0.1 nM.
Consider B2, for which the “EC50 (read off the curve)” value is roughly 0.3 nM.

A further test addresses T2, human CD27. Nature of the test: screen of individual clones, heat map of log (Binding MFI), human CD27 at 25 nM.
Consider B3, for which the binding result is “binds”.
Same read-out and setting: next, B4: “binds”.
Turning to B5, the binding result is given as “binds”.
Turning to B6, the binding result is listed as “binds”.
On to B7, for which the binding result is recorded as “binds”.
Regarding B8, the binding result was “binds”.
The same measure, in the same setting: next, B9: “binds”; B10: “binds”; B11: “binds”.
As to B12, the binding result is recorded as “binds”.

For a further test, the target named is T1, mouse CD27. Put plainly: screen of individual clones, heat map of log (Binding MFI), mouse CD27 at 25 nM.
As for B5, the binding result is given as “binds”.

The target of the next test is T2, human CD27. Nature of the test: Kd table for the mAb titration on human CD27 (OD readout, Figure 4 A); method not given.
Regarding B13, binding was characterised by a dissociation constant (Kd) of 5 nM.
Regarding B1, binding was put at a Kd of 0.1 nM.
As to B14, the Kd (in general, a measure of binding affinity in units of concentration) came out at 1.4 nM.
B15 gave a Kd of 0.3 nM.
With B2, binding was characterised by a dissociation constant (Kd) of 0.6 nM.
In turn, B16 came in with a Kd of 0.2 nM.
On the same count and under the same terms, the figure for B17 is 0.4 nM.

The next test has as its target T1, mouse CD27. Put plainly: Kd table for the mAb titration on mouse CD27 (OD readout, Figure 4 B); method not given.
The molecule B13 displayed a Kd of 40 nM.
The molecule B15 returned a Kd of 0.7 nM.
The same measure, in the same setting: the figure for B2 is 8 nM; for B16 it is 0.5 nM.
On to B17, for which the Kd was 0.9 nM.
